Source: publication PMC6686036, “Structural Basis for the Differential Regulatory Roles of the PDZ Domain in C-Terminal Processing Proteases” (mBio, 2019)

Columns and labels:
Assay in all cases: crystal structure; purified Prc mutant and sNlpI mixed in a 1:2 molar ratio, complex isolated on Superdex 200 (25 mM Tris-HCl pH 8.0, 150 mM NaCl); hanging-drop vapor diffusion at 22°C (16°C for sNlpI–Prc-ΔPDZ)
Prc-S452I/L252Y = molecular target: T1, Prc-S452I/L252Y (E. coli, UniProt P23865 23-682, S452I | L252Y); settings: both partners purified
T1 construct: also called Prc S452I/L252Y double mutant; unliganded resting Prc; source: E. coli ΔPrc cells (strain MR812), purified (Ni-NTA, Mono Q, Superdex 200 with sNlpI)
T1 sequence (looked up): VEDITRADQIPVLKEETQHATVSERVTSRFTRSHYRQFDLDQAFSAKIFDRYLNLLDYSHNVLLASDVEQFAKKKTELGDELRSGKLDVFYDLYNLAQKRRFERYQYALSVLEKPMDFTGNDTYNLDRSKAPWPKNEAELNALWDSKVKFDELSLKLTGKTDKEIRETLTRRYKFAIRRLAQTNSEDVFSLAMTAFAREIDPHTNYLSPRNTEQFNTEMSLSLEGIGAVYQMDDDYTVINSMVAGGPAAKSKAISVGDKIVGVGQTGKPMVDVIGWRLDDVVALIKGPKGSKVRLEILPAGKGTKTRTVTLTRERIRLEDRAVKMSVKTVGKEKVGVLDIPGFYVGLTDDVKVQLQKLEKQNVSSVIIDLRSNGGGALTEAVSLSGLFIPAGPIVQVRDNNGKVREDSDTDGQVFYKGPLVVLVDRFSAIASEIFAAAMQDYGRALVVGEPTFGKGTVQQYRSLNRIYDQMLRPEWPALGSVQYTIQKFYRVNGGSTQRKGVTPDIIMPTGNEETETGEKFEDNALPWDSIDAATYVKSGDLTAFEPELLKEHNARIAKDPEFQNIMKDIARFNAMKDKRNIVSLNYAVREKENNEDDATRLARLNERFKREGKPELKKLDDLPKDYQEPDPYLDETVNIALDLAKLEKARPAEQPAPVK

Prc-L245A/L340G = molecular target: T2, Prc-L245A/L340G (E. coli, UniProt P23865 23-682, L245A | L340G); settings: both partners purified
T2 construct: also called Prc L245A/L340G double mutant; source: E. coli ΔPrc cells (strain MR812), purified (Ni-NTA, Mono Q, Superdex 200 with sNlpI)
T2 sequence (looked up): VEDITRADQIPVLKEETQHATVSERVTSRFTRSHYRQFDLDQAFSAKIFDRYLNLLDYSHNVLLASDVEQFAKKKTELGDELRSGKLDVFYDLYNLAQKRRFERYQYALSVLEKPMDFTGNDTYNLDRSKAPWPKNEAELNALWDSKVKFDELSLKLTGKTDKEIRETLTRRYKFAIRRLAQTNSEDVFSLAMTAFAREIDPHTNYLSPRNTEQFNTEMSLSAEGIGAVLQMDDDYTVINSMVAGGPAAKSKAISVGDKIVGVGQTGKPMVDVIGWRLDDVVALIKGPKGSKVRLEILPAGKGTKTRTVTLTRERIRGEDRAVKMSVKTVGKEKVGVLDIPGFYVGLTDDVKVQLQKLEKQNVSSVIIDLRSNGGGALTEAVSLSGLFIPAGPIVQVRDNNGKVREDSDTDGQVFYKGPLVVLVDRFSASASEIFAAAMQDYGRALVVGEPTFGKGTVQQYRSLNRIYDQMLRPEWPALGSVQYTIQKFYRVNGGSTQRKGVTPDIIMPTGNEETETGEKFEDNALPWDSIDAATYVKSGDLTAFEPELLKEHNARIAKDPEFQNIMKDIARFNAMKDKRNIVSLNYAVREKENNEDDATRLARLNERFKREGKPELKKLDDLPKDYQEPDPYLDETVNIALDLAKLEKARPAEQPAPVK

[1] = molecular target: T3, Prc-ΔPDZ (Prc with the deletion of residues 247 to 339) (E. coli, UniProt P23865 23-682, Δ247-339); settings: both partners purified
T3 construct: Prc (Tsp), tail-specific C-terminal processing protease of E. coli, with the PDZ domain (residues 247 to 339) deleted; cloned into pTrc99A; also called Prc-PDZ; source: E. coli ΔPrc cells (strain MR812), purified (Ni-NTA, Mono Q, Superdex 200 with sNlpI)
T3 sequence (looked up): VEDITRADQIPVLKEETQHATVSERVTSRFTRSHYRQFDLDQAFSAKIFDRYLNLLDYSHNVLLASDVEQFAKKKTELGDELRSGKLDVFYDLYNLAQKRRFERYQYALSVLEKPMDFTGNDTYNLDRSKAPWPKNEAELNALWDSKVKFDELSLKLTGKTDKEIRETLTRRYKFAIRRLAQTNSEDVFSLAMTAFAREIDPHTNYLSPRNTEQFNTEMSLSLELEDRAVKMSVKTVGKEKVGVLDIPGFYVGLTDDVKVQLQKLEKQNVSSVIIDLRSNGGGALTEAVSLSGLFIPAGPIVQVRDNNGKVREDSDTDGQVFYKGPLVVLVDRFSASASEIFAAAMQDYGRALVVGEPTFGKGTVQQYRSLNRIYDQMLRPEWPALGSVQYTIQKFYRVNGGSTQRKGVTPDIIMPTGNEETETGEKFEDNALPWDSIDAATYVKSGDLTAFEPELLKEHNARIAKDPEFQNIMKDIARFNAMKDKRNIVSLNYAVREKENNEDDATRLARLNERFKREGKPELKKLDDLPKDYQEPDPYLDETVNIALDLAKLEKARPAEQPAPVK

[2] = molecular target: the molecule itself

B1: soluble form of NlpI (sNlpI) (natural protein, E. coli, UniProt P0AFB1 19-294, looked up)
chain: CSNTSWRKSEVLAVPLQPTLQQEVILARMEQILASRALTDDERAQLLYERGVLYDSLGLRALARNDFSQALAIRPDMPEVFNYLGIYLTQAGNFDAAYEAFDSVLELDPTYNYAHLNRGIALYYGGRDKLAQDDLLAFYQDDPNDPFRSLWLYLAEQKLDEKQAKEVLKQHFEKSDKEQWGWNIVEFYLGNISEQTLMERLKADATDNTSLAEHLSETNFYLGKYYLSLGDLDSATALFKLAVANNVHNFVEHRYALLELSLLGQDQDDLAESDQQ
notes: NlpI of E. coli without its lipoprotein signal peptide (expressed without the lipid anchor); a TEV protease cleavage site follows the N-terminal His tag; source: E. coli BL21(λDE3), purified (Ni-NTA, Mono Q, Superdex 200 with Prc)
Prc-S452I/L252Y
  binding result: binds
Prc-L245A/L340G
  binding result: binds
[1]
  binding result: binds
[2]
  stoichiometry N: 2
